Measurements from PMC7954794, “Protein context shapes the specificity of SH3 domain-mediated interactions in vivo” (Nature Communications, 2021).

B1: YFR040W (protein, UniProt P43612 1-1002, looked up)
SIT4-associating protein …: MSFWPFGQNLNHSNINKILDEYFHVLHELERINPSVGKAIPAIFNNVQERGTSDSLDSIPEEYSHGDEVKTARGDQKSRFEKDDQQERYEKEEEERSMNSSESSTTSFSSGSTSKTDLDEEDISNATAPMMVTTKNLDNSFIERMLVETELLNELSRQNKTLLDFICFGFFFDKKTNKKVNNMEYLVDQLMECISKIKTATTVDLNNLIDYQEQQQLDDSSQEDVYVESDTEQEEEKEDDNNSNNKKRRKRGSSSFGNDDINNNDDDDDANEDDESAYLTKATIISEIFSLDIWLISESLVKNQSYLNKIWSIINQPNFNSENSPLVPIFLKINQNLLLTRQDQYLNFIRTERSFVDDMLKHVDISLLMDFFLKIISTDKIESPTGIIELVYDQNLISKCLSFLNNKESPADIQACVGDFLKALIAISANAPLDDISIGPNSLTRQLASPESIAKLVDIMINQRGAALNTTVSIVIELIRKNNSDYDQVNLLTTTIKTHPPSNRDPIYLGYLLRKFSNHLSDFFQIILDIENDANIPLHENQLHEKFKPLGFERFKVVELIAELLHCSNMGLMNSKRAERIARRRDKVRSQLSHHLQDALNDLSIEEKEQLKTKHSPTRDTDHDLKNNNGKIDNDNNDNDDESDYGDEIDESFEIPYINMKQNIKLRTDPTVGDLFKIKLYDTRIVSKIMELFLTHPWNNFWHNVIFDIIQQIFNGRMDFSYNSFLVLSLFNLKSSYQFMTDIVISDEKGTDVSRFSPVIRDPNFDFKITTDFILRGYQDSYKFYELRKMNLGYMGHIVLIAEEVVKFSKLYKVELISPDIQVILQTEEWQYYSEEVLNETRMMYSKILGGGSYIDDGNGNIIPQLPDNTTVLTPNGDASNNNEILDSDTGSSNGTSGGGQLINVESLEEQLSLSTESDLHNKLREMLINRAQEDVDNKNTENGVFILGPPEDKNSNSNINNTNHNSNNSNNNDNNDNNDNDNDNTRNYNEDADNDNDYDHE
B2: ABP1 001 P * (protein, UniProt P15891 2-592, looked up)
Actin-binding protein: ALEPIDYTTHSREIDAEYLKIVRGSDPDTTWLIISPNAKKEYEPESTGSSFHDFLQLFDETKVQYGLARVSPPGSDVEKIIIIGWCPDSAPLKTRASFAANFAAVANNLFKGYHVQVTARDEDDLDENELLMKISNAAGARYSIQTSSKQQGKASTPPVKKSFTPSKSPAPVSKKEPVKTPSPAPAAKISSRVNDNNDDDDWNEPELKERDFDQAPLKPNQSSYKPIGKIDLQKVIAEEKAKEDPRLVQKPTAAGSKIDPSSDIANLKNESKLKRDSEFNSFLGTTKPPSMTESSLKNDDDKVIKGFRNEKSPAQLWAERKAKQNSGNAETKAEAPKPEVPEDEPEGEPDVKDLKSKFEGLAASEKEEEEMENKFAPPPKKSEPTIISPKPFSKPQEPVKAEEAEQPKTDYKKIGNPLPGMHIEADNEEEPEENDDDWDDDEDEAAQPPLPSRNVASGAPVQKEEPEQEEIAPSLPSRNSIPAPKQEEAPEQAPEEEIEEEAEEAAPQLPSRSSAAPPPPPRRATPEKKPKENPWATAEYDYDAAEDNELTFVENDKIINIEFVDDDWWLGELEKDGSKGLFPSNYVSLGN
B3: ABP1 001 P E (protein, UniProt P15891 2-592, looked up)
Actin-binding protein: B2 Actin-binding protein
B4: ABP1 001 P C (protein, UniProt P15891 2-592, looked up)
Actin-binding protein: B2 Actin-binding protein
B5: YDL146W (protein, UniProt Q12342 1-491, looked up)
Protein LDB17: MILDPLSPNIENHTQDEIIEFWEKTESIANIPKENLDESHVNSSLVAYLKFATDSYKVFINTDRDLYRMSLILLESSLFEFKKEFCLSKLQSLLNIDLLEMNMKFIIVYILLCEAKKNVYSLEIMLKFQGFTVFYNTLYTQFAYLSKYGKERTVASKHQYNSNNSSTGTSLDSLDRSLTDIDLGIIDEMKQISTVLMDLLFQIMKYCKCVIANLQIVDDFFVYYMMESMRSDTMDDMFNNAEFKLLLALNEQYMMFAKEYDIENKVYKYLINGSVSRCFTELLLLKFNRASDPPLQIMMCKIIYLILTPRGDYSPMNFFYTNDLRVLIDVLIRELQNISEDEEVLRNTLLRVLIPLLKNTQLSKTHYRKDDLNKLLNYLSTLDNICVDSPALHEHQVTVALSRKCLQQIPWLETPSTPSDGGSSVSSNNTSRNSSIVALGTPDNQNILARKGHLYSNRELDVSAESLTKRKAKAPPPPPPPPPSRKCGTPK
B6: YGL252C (protein, UniProt P32608 1-588, looked up)
Retrograde regulation protein …: MSTLSDSDTETEVVSRNLCGIVDIGSNGIRFSISSKAAHHARIMPCVFKDRVGLSLYEVQYNTHTNAKCPIPRDIIKEVCSAMKRFKLICDDFGVPETSVRVIATEATRDAINADEFVNAVYGSTGWKVEILGQEDETRVGIYGVVSSFNTVRGLYLDVAGGSTQLSWVISSHGEVKQSSKPVSLPYGAGTLLRRMRTDDNRALFYEIKEAYKDAIEKIGIPQEMIDDAKKEGGFDLWTRGGGLRGMGHLLLYQSEGYPIQTIINGYACTYEEFSSMSDYLFLKQKIPGSSKEHKIFKVSDRRALQLPAVGLFMSAVFEAIPQIKAVHFSEGGVREGSLYSLLPKEIRAQDPLLIASRPYAPLLTEKYLYLLRTSIPQEDIPEIVNERIAPALCNLAFVHASYPKELQPTAALHVATRGIIAGCHGLSHRARALIGIALCSRWGGNIPESEEKYSQELEQVVLREGDKAEALRIVWWTKYIGTIMYVICGVHPGGNIRDNVFDFHVSKRSEVETSLKELIIDDANTTKVKEESTRKNRGYEVVVRISKDDLKTSASVRSRIITLQKKVRKLSRGSVERVKIGVQFYEE

How the values were obtained:
ABP1 = assay: DHFR-PCA on solid medium, bait ABP1 (Fig. 1B); format: cell-based, Saccharomyces cerevisiae; conditions: bait ABP1, label = prey; 2-4 replicates
Source text: Supplement 41467_2021_21873_MOESM8_ESM.xlsx, sheet "Fig1B" | column: medsize; medrep; Ratio; Score

Hua2 = assay: Deep mutational scanning of Abp1 SH3, Abp1-Hua2 DHFR-PCA (DMS score); format: cell-based, Saccharomyces cerevisiae; conditions: for ratio (log2 scale): HUA2_MTX2 (test) vs HUA2_S2 (reference); for ratio (log2 scale) / ratio (log2 scale) mean / frequency (reference condition) / frequency (test condition): amino acid mutation format; for ratio (log2 scale) / frequency (reference condition) / frequency (test condition): replicate 1, Fig. S3A-B; for ratio (log2 scale) mean: condition HUA2_MTX2; for ratio (log2 scale) mean / frequency (reference condition) mean / frequency (test condition) mean / frequency (log2 scale) (reference condition) mean / frequency (log2 scale) (test condition) mean: Fig. S3E; for frequency (reference condition): reference condition HUA2_S2; for frequency (reference condition) mean / frequency (log2 scale) (reference condition) mean: reference condition for HUA2_MTX2; for frequency (test condition) / frequency (test condition) mean / frequency (log2 scale) (test condition) mean: test condition HUA2_MTX2
Experimental: Single site mutation libraries were generated by a PCR-based saturation mutagenesis method[50] as described below. The mutagenesis was carried out on the pUC19 plasmid containing the SH3 domain sequence of ABP1 flanked by its homology arms subsequently used in the CRISPR mediated genomic re-integration. We used oligos containing degenerate nucleotides (NNN) to carry out the mutagenesis at each codon of the domain sequence. In the first step of the two-step PCR procedure (short PCR step), an amplicon was generated with an oligo containing the degenerate codon which is positioned within the domain sequence, and another oligo lying outside Abp1 sequence in the plasmid. Short PCR step was carried out with the following settings: 5 min at 95 °C, 35 cycles: 20 s at 98 °C, 15 s at 60 °C, 30 s at 72 °C, and a final extension of 1 min at 72 °C. The amplicon generated in this step was used as a mega primer in the second step (long PCR step) to amplify the whole plasmid. Long PCR step was carried out with the following settings: 5 min at 95 °C, 22 cycles: 20 s at 98 °C, 15 s at 68 °C, 3 min 30 s at 72 °C, and a final extension of 5 min at 72 °C. The long PCR product was digested for 2 h at 37 °C with DpnI. The digestion product was then transformed into E. coli MC1061 competent cells. In order to obtain most of the 64 possible codons, we recovered ~1000 colonies from each plate to retrieve the plasmid single mutant libraries. Saturation mutagenesis was carried out in a codon-position-wise manner. Mutants at each position were stored separately. Library quality control was assessed by amplifying the purified plasmid DNA preparations by PCR followed by Illumina sequencing as described below. The genomic insertion of the mutant libraries (one library per amino acid position) was performed by targeting the stuffer sequence in the ABP1 SH3-deleted strain as described in the strain construction section. ABP1 SH3-deleted yeast competent cells were co-transformed with pCAS containing the stuffer-specific gRNA and PCR amplified ABP1 SH3 single position mutated libraries from the pUC19 preparations. As for the library generation, ~1000 colonies from each plate were retrieved. Glycerol stocks of yeast cells were kept for each position (58 different stocks corresponding to the 58 amino acid positions of Abp1 SH3). The stocks were also validated by Illumina sequencing (see below).
Liquid DHFR-PCA experiments were performed following the generation of the ABP1 SH3 single position mutated yeast strains and were performed in biological independent duplicates. An overnight culture was started in YPD + NAT by adding the same number of cells from each yeast mutant strain (master pool). Then, the master pool and Hua2-DHFR F[3] or Lsb3-DHFR F[3] preys strains were mixed in YPD (2:1) for mating and incubated for 8 h at 30 °C. Diploid cells were selected the first time by transferring the mixture in a YPD + NAT + HPH (OD 0.5) culture for 16 h at 30 °C. The next day, the first diploid selection was transferred in SC complete pH 6.0 + NAT + HPH at 0.5 OD and the culture was grown for 24 h at 30 °C. The validation of the yeast mutant libraries was done the next day with a fraction of the diploid cells (first DHFR-PCA experiment time point without PCA selection, reference condition S2) by amplifying ABP1 SH3 genomic sequence followed by Illumina sequencing as described in the section below. Following the selection, diploid cells OD was read using a TECAN Infinite F200 Pro, and dilutions to 0.1 OD in PCA selection media without agar in a 50 mL tube was done. Tubes were incubated at 30 °C for 72 h (second-time point of the DHFR-PCA experiment, first PCA selection). A fraction of the cells (5U OD) was collected for Illumina sequencing. The cells from the first PCA step were grown for a second PCA selection step using the same procedures. […]

Row | Molecule | medrep (log2 median colony size normalized to plate background, PCA score) (ABP1) | ratio (log2 scale) (Hua2) | ratio (log2 scale) mean (Hua2) [log2 scale] | frequency (reference condition) (Hua2) | frequency (reference condition) mean (Hua2) | frequency (test condition) (Hua2) | frequency (test condition) mean (Hua2) | frequency (log2 scale) (reference condition) mean (Hua2) | frequency (log2 scale) (test condition) mean (Hua2)
1 | B1 | 2.847 |  |  |  |  |  |  |  | 
2 | B2 |  | -1.421 | -1.432 | 0.001041 | 0.0009397 | 5.39E-06 | 2.69E-06 |  | 
3 | B3 |  | 2.627 | 2.654 | 0.0007975 | 0.0006949 | 0.002419 | 0.002135 | -1.4398 | -1.434
4 | B4 |  | 2.7124 | 3.075 | 0.0005961 | 0.0004649 | 0.001896 | 0.001734 | -1.441 | -1.435
5 | B5 | 3.631 |  |  |  |  |  |  |  | 
6 | B6 | 2.12 |  |  |  |  |  |  |  | 
